Article PMC12808597, “Spatially diffuse cAMP signalling with oppositely biased GLP-1 receptor agonists in β-cells despite differences in receptor localisation” (Molecular Metabolism, 2025)

Experiments:
[1] = target: human glucagon-like peptide-1 receptor, untagged (human) (UniProt P43220); assay: imaging of fluorescent ligand bound to cells; Cy5- or TMR-agonist over a concentration range, 30 min stimulation; AD293 cells expressing untagged hGLP-1R or mGLP-1R, or wild-type INS-1 832/3 cells (non-specific binding from INS-1 832/3 Glp1r-/- cells subtracted); 'functional affinities'
Sequence of human glucagon-like peptide-1 receptor, untagged (human) (P43220 24-463): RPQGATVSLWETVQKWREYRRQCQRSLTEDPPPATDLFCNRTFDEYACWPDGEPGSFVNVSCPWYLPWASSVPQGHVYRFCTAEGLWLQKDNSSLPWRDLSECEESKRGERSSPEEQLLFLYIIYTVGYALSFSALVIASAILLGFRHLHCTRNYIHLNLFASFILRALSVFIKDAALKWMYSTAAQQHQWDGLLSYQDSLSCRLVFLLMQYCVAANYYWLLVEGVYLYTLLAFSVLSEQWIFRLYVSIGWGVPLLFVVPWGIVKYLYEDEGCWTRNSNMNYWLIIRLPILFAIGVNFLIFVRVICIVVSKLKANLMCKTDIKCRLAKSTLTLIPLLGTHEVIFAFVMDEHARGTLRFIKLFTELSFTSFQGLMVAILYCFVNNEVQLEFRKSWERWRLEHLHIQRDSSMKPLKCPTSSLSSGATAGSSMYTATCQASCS

[2] = target: mouse glucagon-like peptide-1 receptor, untagged (mouse) (UniProt O35659); assay: as above
Sequence of mouse glucagon-like peptide-1 receptor, untagged (mouse) (O35659 22-463): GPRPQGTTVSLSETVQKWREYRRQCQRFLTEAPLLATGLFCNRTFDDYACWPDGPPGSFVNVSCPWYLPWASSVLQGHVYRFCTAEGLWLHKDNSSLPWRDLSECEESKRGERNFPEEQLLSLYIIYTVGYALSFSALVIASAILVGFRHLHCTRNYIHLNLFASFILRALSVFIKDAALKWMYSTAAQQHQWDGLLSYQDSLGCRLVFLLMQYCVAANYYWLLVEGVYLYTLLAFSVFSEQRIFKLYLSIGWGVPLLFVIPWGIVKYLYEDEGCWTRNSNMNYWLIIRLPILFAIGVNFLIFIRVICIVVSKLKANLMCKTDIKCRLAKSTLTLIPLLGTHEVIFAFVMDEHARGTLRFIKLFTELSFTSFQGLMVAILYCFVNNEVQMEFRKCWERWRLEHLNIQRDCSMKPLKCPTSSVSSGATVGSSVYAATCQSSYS

[3] = target: GLP-1R endogenous in wild-type mouse pancreatic islets (mouse (endogenous in C57Bl/6J islets)) (UniProt O35659); assay: imaging of fluorescent ligand in intact islets; wild-type mouse islets, 1 nM TMR-agonist, continuous 60 min or 10 min then exendin(9-39) washout
Sequence of GLP-1R endogenous in wild-type mouse pancreatic islets (mouse (endogenous in C57Bl/6J islets)) (O35659 22-463): as above

[4] = target: mouse glucagon-like peptide-1 receptor, untagged (mouse) (UniProt O35659); assay: imaging of fluorescent ligand bound to cells; washout: TMR-agonist detected at 60 min in AD293 cells transiently expressing untagged GLP-1R, with or without 20 uM exendin(9-39) applied 10 min after agonist

Row | Substance | fold lower affinity than the Cy5 equivalent [1] [fold] | fold lower affinity than the Cy5 equivalent [2] [fold] | total ligand bound after washout relative to continuously applied ExF1 [3] [fold] | percent reduction of total ExD3-TMR binding by washout with 20 uM exendin(9-39) [4] [%]
1 | exendin-phe1 tetramethylrhodamine conjugate (peptide) | 5 | 3 |  | 
2 | exendin-asp3 tetramethylrhodamine conjugate (peptide) | 5 | 3 | 2 | 
3 | exendin(9–39) (peptide) |  |  |  | 50
